# In IntAct's records for PubMed 12730685:
# Target: mgn_human MAGOH (UniProt P61326)
substance,measurement,value
RNA-binding protein 8A (Homo sapiens) (from UniProt Q9Y5S9) L118R,effect of a mutation on the interaction,decreasing interaction
